Assay results reported in paper PMC8909857.

Target: Channelrhodopsin-2 (D156C) (Chlamydomonas reinhardtii) (UniProt Q8RUT8)
Assay: SDS-PAGE; Coomassie-stained SDS-PAGE of SEC-purified fractions (elution volumes 11 to 15 mL); dimer partially SDS-resistant

stoichiometry N: 2
Substance: Channelrhodopsin-2 (D156C) (from UniProt Q8RUT8 1-737) (natural protein)
